# Laboratory results as given in the Human Domainome abundance scans (Beltran et al. 2025).
# ± gives the uncertainty stated by the source.
# Assay: abundance fitness (aPCA) (normalised: wild type 0, dead -1); higher = more abundant; growth selection in yeast, the domain comes from the species named
# Conditions: Homo sapiens
row,Substance,abundance fitness
1,"E3 ubiquitin-protein ligase NEDD4-like D204A, Q96PU5",-0.392 ± 0.068
2,"E3 ubiquitin-protein ligase NEDD4-like D204C, Q96PU5",-0.151 ± 0.099
3,"E3 ubiquitin-protein ligase NEDD4-like D204E, Q96PU5",-0.505 ± 0.089
4,"E3 ubiquitin-protein ligase NEDD4-like D204G, Q96PU5",-0.491 ± 0.057
5,"E3 ubiquitin-protein ligase NEDD4-like D204H, Q96PU5",-0.684 ± 0.14
6,"E3 ubiquitin-protein ligase NEDD4-like D204I, Q96PU5",-1.04 ± 0.17
7,"E3 ubiquitin-protein ligase NEDD4-like D204K, Q96PU5",-0.894 ± 0.13
8,"E3 ubiquitin-protein ligase NEDD4-like D204L, Q96PU5",-0.803 ± 0.072
9,"E3 ubiquitin-protein ligase NEDD4-like D204M, Q96PU5",-0.751 ± 0.075
10,"E3 ubiquitin-protein ligase NEDD4-like D204N, Q96PU5",-0.451 ± 0.14
11,"E3 ubiquitin-protein ligase NEDD4-like D204P, Q96PU5",-0.897 ± 0.15
12,"E3 ubiquitin-protein ligase NEDD4-like D204Q, Q96PU5",-0.668 ± 0.077
13,"E3 ubiquitin-protein ligase NEDD4-like D204R, Q96PU5",-1.03 ± 0.062
14,"E3 ubiquitin-protein ligase NEDD4-like D204S, Q96PU5",-0.037 ± 0.064
15,"E3 ubiquitin-protein ligase NEDD4-like D204V, Q96PU5",-0.908 ± 0.074
16,"E3 ubiquitin-protein ligase NEDD4-like D204W, Q96PU5",-1.4 ± 0.12
17,"E3 ubiquitin-protein ligase NEDD4-like D228A, Q96PU5",-0.091 ± 0.07
18,"E3 ubiquitin-protein ligase NEDD4-like D228C, Q96PU5",-0.332 ± 0.067
19,"E3 ubiquitin-protein ligase NEDD4-like D228E, Q96PU5",0.062 ± 0.09
20,"E3 ubiquitin-protein ligase NEDD4-like D228F, Q96PU5",-0.329 ± 0.11
21,"E3 ubiquitin-protein ligase NEDD4-like D228G, Q96PU5",0.031 ± 0.056
22,"E3 ubiquitin-protein ligase NEDD4-like D228H, Q96PU5",0.122 ± 0.079
23,"E3 ubiquitin-protein ligase NEDD4-like D228I, Q96PU5",-0.474 ± 0.12
24,"E3 ubiquitin-protein ligase NEDD4-like D228K, Q96PU5",-0.002 ± 0.079

row,Substance,abundance fitness
1,"E3 ubiquitin-protein ligase NEDD4-like D228L, Q96PU5",-0.14 ± 0.062
2,"E3 ubiquitin-protein ligase NEDD4-like D228M, Q96PU5",-0.175 ± 0.099
3,"E3 ubiquitin-protein ligase NEDD4-like D228N, Q96PU5",0.063 ± 0.097
4,"E3 ubiquitin-protein ligase NEDD4-like D228P, Q96PU5",0.099 ± 0.07
5,"E3 ubiquitin-protein ligase NEDD4-like D228Q, Q96PU5",-0.277 ± 0.085
6,"E3 ubiquitin-protein ligase NEDD4-like D228R, Q96PU5",-0.101 ± 0.061
7,"E3 ubiquitin-protein ligase NEDD4-like D228S, Q96PU5",-0.053 ± 0.059
8,"E3 ubiquitin-protein ligase NEDD4-like D228T, Q96PU5",0.042 ± 0.076
9,"E3 ubiquitin-protein ligase NEDD4-like D228V, Q96PU5",-0.159 ± 0.071
10,"E3 ubiquitin-protein ligase NEDD4-like D228W, Q96PU5",-0.419 ± 0.064
11,"E3 ubiquitin-protein ligase NEDD4-like E188A, Q96PU5",-0.854 ± 0.29
12,"E3 ubiquitin-protein ligase NEDD4-like E188G, Q96PU5",-1.07 ± 0.49
13,"E3 ubiquitin-protein ligase NEDD4-like E188L, Q96PU5",-0.459 ± 0.28
14,"E3 ubiquitin-protein ligase NEDD4-like E188S, Q96PU5",0.089 ± 0.22
15,"E3 ubiquitin-protein ligase NEDD4-like E188V, Q96PU5",0.297 ± 0.2
16,"E3 ubiquitin-protein ligase NEDD4-like E189A, Q96PU5",-0.356 ± 0.065
17,"E3 ubiquitin-protein ligase NEDD4-like E189C, Q96PU5",-0.176 ± 0.062
18,"E3 ubiquitin-protein ligase NEDD4-like E189D, Q96PU5",-0.189 ± 0.093
19,"E3 ubiquitin-protein ligase NEDD4-like E189G, Q96PU5",-0.241 ± 0.058
20,"E3 ubiquitin-protein ligase NEDD4-like E189H, Q96PU5",-0.242 ± 0.13
21,"E3 ubiquitin-protein ligase NEDD4-like E189I, Q96PU5",0.107 ± 0.13
22,"E3 ubiquitin-protein ligase NEDD4-like E189K, Q96PU5",-0.026 ± 0.082
23,"E3 ubiquitin-protein ligase NEDD4-like E189L, Q96PU5",-0.278 ± 0.065
24,"E3 ubiquitin-protein ligase NEDD4-like E189M, Q96PU5",-0.477 ± 0.081

row,Substance,abundance fitness
1,"E3 ubiquitin-protein ligase NEDD4-like E189N, Q96PU5",0.222 ± 0.095
2,"E3 ubiquitin-protein ligase NEDD4-like E189P, Q96PU5",-0.384 ± 0.093
3,"E3 ubiquitin-protein ligase NEDD4-like E189Q, Q96PU5",-0.062 ± 0.097
4,"E3 ubiquitin-protein ligase NEDD4-like E189R, Q96PU5",-0.23 ± 0.055
5,"E3 ubiquitin-protein ligase NEDD4-like E189S, Q96PU5",-0.136 ± 0.065
6,"E3 ubiquitin-protein ligase NEDD4-like E189T, Q96PU5",-0.087 ± 0.077
7,"E3 ubiquitin-protein ligase NEDD4-like E189V, Q96PU5",-0.267 ± 0.069
8,"E3 ubiquitin-protein ligase NEDD4-like E189W, Q96PU5",-0.56 ± 0.065
9,"E3 ubiquitin-protein ligase NEDD4-like E189Y, Q96PU5",0.16 ± 0.1
10,"E3 ubiquitin-protein ligase NEDD4-like E200A, Q96PU5",-0.105 ± 0.062
11,"E3 ubiquitin-protein ligase NEDD4-like E200C, Q96PU5",-0.092 ± 0.08
12,"E3 ubiquitin-protein ligase NEDD4-like E200D, Q96PU5",-0.346 ± 0.081
13,"E3 ubiquitin-protein ligase NEDD4-like E200F, Q96PU5",-0.328 ± 0.083
14,"E3 ubiquitin-protein ligase NEDD4-like E200G, Q96PU5",-0.299 ± 0.059
15,"E3 ubiquitin-protein ligase NEDD4-like E200H, Q96PU5",-0.721 ± 0.18
16,"E3 ubiquitin-protein ligase NEDD4-like E200K, Q96PU5",-0.161 ± 0.062
17,"E3 ubiquitin-protein ligase NEDD4-like E200L, Q96PU5",-0.266 ± 0.08
18,"E3 ubiquitin-protein ligase NEDD4-like E200M, Q96PU5",-0.152 ± 0.074
19,"E3 ubiquitin-protein ligase NEDD4-like E200N, Q96PU5",-0.471 ± 0.13
20,"E3 ubiquitin-protein ligase NEDD4-like E200P, Q96PU5",-1.29 ± 0.2
21,"E3 ubiquitin-protein ligase NEDD4-like E200Q, Q96PU5",-0.072 ± 0.11
22,"E3 ubiquitin-protein ligase NEDD4-like E200R, Q96PU5",-0.31 ± 0.065
23,"E3 ubiquitin-protein ligase NEDD4-like E200S, Q96PU5",-0.166 ± 0.077
24,"E3 ubiquitin-protein ligase NEDD4-like E200T, Q96PU5",-0.138 ± 0.081

row,Substance,abundance fitness
1,"E3 ubiquitin-protein ligase NEDD4-like E200V, Q96PU5",-0.179 ± 0.084
2,"E3 ubiquitin-protein ligase NEDD4-like E200W, Q96PU5",-0.603 ± 0.069
3,"E3 ubiquitin-protein ligase NEDD4-like E200Y, Q96PU5",-0.357 ± 0.072
4,"E3 ubiquitin-protein ligase NEDD4-like E201A, Q96PU5",-0.1 ± 0.066
5,"E3 ubiquitin-protein ligase NEDD4-like E201C, Q96PU5",-0.084 ± 0.09
6,"E3 ubiquitin-protein ligase NEDD4-like E201F, Q96PU5",-0.412 ± 0.14
7,"E3 ubiquitin-protein ligase NEDD4-like E201G, Q96PU5",-0.282 ± 0.05
8,"E3 ubiquitin-protein ligase NEDD4-like E201H, Q96PU5",-0.223 ± 0.13
9,"E3 ubiquitin-protein ligase NEDD4-like E201L, Q96PU5",-0.257 ± 0.061
10,"E3 ubiquitin-protein ligase NEDD4-like E201M, Q96PU5",-0.066 ± 0.11
11,"E3 ubiquitin-protein ligase NEDD4-like E201N, Q96PU5",-0.212 ± 0.06
12,"E3 ubiquitin-protein ligase NEDD4-like E201P, Q96PU5",-0.255 ± 0.091
13,"E3 ubiquitin-protein ligase NEDD4-like E201Q, Q96PU5",-0.228 ± 0.12
14,"E3 ubiquitin-protein ligase NEDD4-like E201R, Q96PU5",-0.209 ± 0.057
15,"E3 ubiquitin-protein ligase NEDD4-like E201S, Q96PU5",-0.124 ± 0.061
16,"E3 ubiquitin-protein ligase NEDD4-like E201T, Q96PU5",-0.098 ± 0.1
17,"E3 ubiquitin-protein ligase NEDD4-like E201V, Q96PU5",-0.14 ± 0.052
18,"E3 ubiquitin-protein ligase NEDD4-like E201W, Q96PU5",-0.423 ± 0.065
19,"E3 ubiquitin-protein ligase NEDD4-like E201Y, Q96PU5",-0.278 ± 0.056
20,"E3 ubiquitin-protein ligase NEDD4-like E232A, Q96PU5",-0.173 ± 0.11
21,"E3 ubiquitin-protein ligase NEDD4-like E232D, Q96PU5",-0.354 ± 0.12
22,"E3 ubiquitin-protein ligase NEDD4-like E232G, Q96PU5",-0.287 ± 0.12
23,"E3 ubiquitin-protein ligase NEDD4-like E232H, Q96PU5",-0.574 ± 0.18
